Data: the supplement of paper PMC10567573

B1: PLK2 (parent)
chain: YAELGQCSVFPATDAPEQFISQVT
B2: ELF3 (parent)
chain: LSKEYWDCLEGKKSKHAPRGTHLW

Variants of: B1
Test: protein stability index of a GFP-peptide fusion (GPS, HEK-293T) (PSI 1-6); higher = more stable
Conditions: c terminus: a fixed tail appended
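Note: lentivirally expressed fusions sorted by FACS into six bins by GFP to DsRed ratio, PSI derived from sequencing read proportions per bin multiplied by bin number.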

Protein stability index, by site and new letter:
S8: A 1.87 | V 2 | H 1.83 | Q 2.08 | K 2.04 | M 1.66 | P 2.04 | F 2.53 | I 1.75 | N 2.57 | Y 1.59 | G 1.93 | C 1.64
S21: R 1.76 | I 2.64 | W 2.92 | K 2.35 | C 1.53 | F 1.82 | H 1.8 | E 2.75 | N 2.14 | D 2.72 | Q 1.89 | P 2.41 | V 1.9
A2: F 2.32 | V 2.15 | H 2.57 | Q 2.79 | T 2.25 | I 1.64 | W 2.5 | R 3.6 | E 4.46 | G 3.29 | Y 2.43 | P 3.42 | M 2.46 | L 2.36 | N 3.75 | D 4.09
V23: P 2.81 | F 1.89 | A 2.39 | H 1.98 | M 2.29 | Q 2.56 | R 2.54 | T 2.48 | C 2.95 | N 2.58 | E 2.75
Y1: G 4.39 | Q 4.7 | K 4.16 | H 4 | F 2.24 | M 3.63 | D 4.58 | R 3.78 | I 3.44 | V 3.56 | C 3.13 | T 3.99
A15: S 1.83 | I 1.96 | G 2.38 | K 2.29 | C 2 | F 1.98 | L 2.31 | V 2.22 | M 2.18 | T 2.19 | N 2.33
E17: Y 2.64 | V 1.78 | H 1.86 | I 1.75 | R 1.62 | K 2.32 | P 2.12 | C 1.79 | T 2.6 | W 3.35 | F 2.18 | M 1.6 | Q 2.9 | L 2.33 | N 1.95
A12: K 2.13 | D 2.81 | Q 2.6 | W 2.14 | N 2.33 | L 1.66 | P 2.47 | H 1.93 | S 2.1
I20: K 2.15 | F 2.54 | L 2.11 | E 2.69 | T 2.27 | S 3.25 | G 2.69 | A 2.13 | N 2.65 | D 2.75 | V 2.84 | Y 1.7
L4: T 3.05 | G 3.51 | D 3.96 | V 2.9 | C 2.43 | K 2.62 | P 3.04 | N 3.09 | W 3.19 | M 2.11
F19: I 2.28 | L 2.36 | W 1.9 | Y 1.94 | K 2.97 | T 2.7 | M 2.43 | R 3.85 | D 2.87 | C 1.96 | P 2.4 | E 3.01 | Q 2.81
C7: D 3.04 | Q 2.36 | A 3.2 | V 2.32 | W 2.5 | K 2.23 | M 2.23 | R 2.57
F10: W 2.96 | A 3.34 | M 3.06 | K 3.26 | G 3.27 | N 3.43 | V 3.52 | Y 2.4 | T 3.47 | P 3.58 | L 3.27
E3: I 1.63 | S 1.82 | A 1.85 | H 1.93 | N 2.08 | C 2.21 | Y 1.85 | L 1.43 | F 1.94 | R 2.09
T13: C 1.97 | S 2.37 | F 1.33 | M 2.11 | W 1.89 | K 2 | R 2.22 | G 2.32 | L 1.92 | D 2.8
T24: H 2.57 | F 1.62 | S 2.1 | I 2.48 | N 2.92 | K 2.6 | P 2.08 | Q 2.68 | G 2.31 | L 2.21 | M 1.73 | D 2.64 | E 2.33 | V 1.9
P16: D 2.53 | T 2.05 | V 1.66 | Q 2.44 | R 1.84 | Y 1.79 | I 1.74 | N 2.35 | M 1.91 | A 1.8 | G 1.89 | K 1.87
P11: M 2.62 | E 1.33 | T 3.65 | W 2.82 | Q 1.91 | R 2.21 | H 2.32 | D 1.64 | S 2.56 | G 3.1 | V 2.33 | K 2.68
G5: Q 2.53 | M 1.98 | K 2.02 | L 1.57 | D 3.32 | P 2.46 | I 1.72 | T 2.28 | A 2.14
Q6: W 2.89 | L 2.03 | H 2.02 | A 2.18 | R 1.69 | T 2.42 | E 3.19 | I 1.57 | C 1.61
V9: Q 2.71 | Y 2.02 | R 2.17 | T 3.12 | F 1.67 | L 1.98 | G 2.27 | C 2.42 | D 4.25 | S 3.34 | W 2.5
D14: A 1.46 | R 1.7 | T 1.94 | E 2.05 | M 1.75 | H 1.97 | Q 1.91 | C 1.86 | P 1.88 | K 1.96
Q22: A 1.94 | F 1.73 | R 2.08 | G 2.36 | D 2.75 | K 1.77 | H 2.27 | I 1.52 | Y 1.86 | W 2.09 | S 2.06 | V 2.81 | C 1.72
Q18: T 2.13 | W 2.21 | R 1.88 | M 2 | F 2.15 | E 2.87 | A 1.87 | I 2.02 | H 2.19 | S 2.29 | N 2.73 | K 2.08

Variants of: B2
Test: as above
Conditions: c terminus: a fixed tail appended

Protein stability index: each site, then its substitutions
L23: I 2.66 | S 3.41 | C 3.11 | E 4.03 | K 3.29 | R 3.25 | T 3.29 | V 2.93 | N 3.29 | H 3.42 | Q 3.59 | Y 2.85 | M 3.27 | A 3.24 | F 2.93 | W 2.71 | D 4.24 | G 3.42 | P 3.13
W24: F 3.6 | V 2.96 | H 3.98 | S 4.08 | M 3.83 | I 2.94 | L 3.3 | A 3.96 | K 4.11 | C 3.8 | Q 3.8 | N 3.64 | E 4.33 | R 3.54 | P 4.15 | G 4.07 | T 4.05 | Y 2.9 | D 4.02
H22: Q 3.05 | I 2.42 | L 2.12 | P 3.03 | G 2.68 | K 2.99 | Y 2.51 | V 2.43 | R 2.85 | S 3.1 | T 2.84 | N 3.23 | M 2.37 | A 2.56 | D 3.31 | F 1.92 | W 1.95 | E 3.29 | C 2.45
T21: Y 2.37
